This note sets out measurements from patent US6777176.

For data set [1], the target named is enzyme I (phosphoenolpyruvate-protein-phosphatase, EC 2.7.3.9) of the bacterial phosphotransferase system (E. coli) (UniProt P08839). As to the kind of experiment: cell-based or functional assay.
In data set [2] the test system is peptides from the phage display library which became phosphorylated by Enzyme I.

In data set [1], HPr protein (from UniProt P0AA04 1-85) gave an uncoupling P1/peptide/h of 2.7 P1/peptide/h.
As to “enzyme I (phosphoenolpyruvate-protein-phosphatase, EC 2.7.3.9) of the bacterial phosphotransferase system”, in data set [2], the “phosphorylation of phage displayed peptides by enzyme I with [32P]phosphoenolpyruvate, fold over the average” value is given as “phosphorylated 25 to 30 fold over the average” and the “rate of phosphorylation by enzyme I (pyruvate formation coupled to lactate dehydrogenase)” value was “The inhibitory peptides are phosphorylated by enzyme I at a much slower rate than Hpr”.
